{"source": "paper PMC7276988", "about": "“Cryo-EM Structure of the Fork Protection Complex Bound to CMG at a Replication Fork” (Molecular Cell, 2020)", "molecules": {"B1": {"name": "Psf2 (natural protein, S. cerevisiae)", "chain": "MSLPAHLQQTFSPEEIQFIVENEPIKIFPRITTRQKIRGDDRGTGNHTRWQLITTDDKALNNMVAMRSTEVVLWIALLLKQQSKCSIVAPQWLTTKELDRKIQYEKTHPDRFSELPWNWLVLARILFNKAKDDFHDPIHELRGKIQDLREIRQIKVLKGLKYLNESHLQLDNLSLLEINELRPFITEIMDKLREIHTASLTAGTENDEEEFNI", "notes": "also called GINS subunit Psf2; source: S. cerevisiae, overexpressed, purified as part of CMG"}, "B2": {"name": "Mrc1 (natural protein, S. cerevisiae, UniProt P25588 1-1096, looked up)", "chain": "MDDALHALSSLTAKKRTTTYKKVAVPILDENDNTNGNGPNDIDNPPELTGNGFLFANATLNRVKNRLEGKKAPEQNHNNGKDRSENSLPTQLISNLYDGGEELEKSEVKDNSYSEKNVSSSFTQTQRIPVSIQQDKVFNVPIHSVNDGKPTQLIKEDGLVNETSQALKTPLTTGRPGATQRIDSSGATSQTQPIKSIEPQSQIITTSSNHSNALSPKIPIIPTELIGTSPLFQSIQNRGPDTQMDVPPQTAHDEDKTQAIGIPQATHQEQKTQIDTVAQTLQDEVPHTLKIREIQSELASEDSKREKARNVEYKKPQKPIPTKKFFSKESFLADFDDSSSNEDDDIKLENAHPKPVQNDDELHENKSVELNLTDETRINEKRVPLLSSYANNLKREIDSSKCITLDLDSDSDEYGDDDMDSIKLSKDESVLPISQLSKATILNLKARLSKQNQKLSQRPNKSKDPKVDHNVLLNTLRKASRKQILDHQKEVIETKGLKLEDMAKEKEIVENLLEQEILRNKRIRQKEKRREKLEENDFQLNAHDSGSDSGSESSGFALSGNEIADYESSGSENDNRRESDSEKEDDEIILKQKKSHHVKHIINESDSDTEVEAKPKEKADESLPKRIAINLGHYGDNIGEDTDKFQETNVLDTQNIEEVMAERNTIENEVKDDVYVNEEADEAIRRQLIDKEKLQLKQKEKEHEAKIKELKKRGVTNFFEMEAEESEDEWHGIGGADGEGSDDYDSDLEKMIDDYSKNNFNPHEIREMLAAENKEMDIKMINKILYDIKNGGFRNKRAKNSLELELSDDDEDDVLQQYRLKRRELMRKRRLEIGDDAKLVKNPKSSAFFESMVEDIIEYKNPFGAEEEYNLDITSTATDLDTQDNSINVGDNTGNNEQKPVDQKNKKVIISEDFVQKSLSFLKSNNYEDFETDKELSRIQHGNDEAIEDLYTLKQNSSIKSFTNSQTDSTTSKTVNTIIDLEKRPEDEDEVENGDTSLVGVFKHPSIIKSFASRTDINDKFKEGNKTVKILKSYKTVGSSKASITYMGKTRKLIAPKRKTEGSHRYHHDHHNKKMKMKTKTKSNKLFESGQDSFDN", "notes": "Mrc1, S. cerevisiae; printed as a 125 kDa protein; The FLAG purification is told for the separately purified protein; source: S. cerevisiae, overexpressed at 20°C, purified (anti-FLAG M2, Superose 6)"}, "B3": {"name": "Csm3^(K47A, R48A, R49A, Q51A, K53A)/Tof1^(K400A, R401A, K404A) (complex, S. cerevisiae)", "chain 1": "MDQDFDSLLLGFNDSDSVQKDPTVPNGLDGSVVDPTIADPTAITARAAAPAVALTAEKLLSDKGLPYVLKNAHKRIRISSKKNSYDNLSNIIQFYQLWAHELFPKAKFKDFMKICQTVGKTDPVLREYRVSLFRDEMGMSFDVGTRETGQDLERQSPMVEEHVTSAEERPIVADSFAQDKRNVNNVDYDNDEDDDIYHLSYRNRRGRVLDERGNNETVLNNVVPPKEDLDALLKTFRVQGPVGLEENEKKLLLGWLDAHRKMEKGSMTEEDVQLIQSLEEWEMNDIEGQHTHYDLLPGGDEFGVDQDELDAMKEMGF", "chain 2": "MSADLQQGTTNAADFSLTVLRARIALLATAIGGPDYTSQIDPPPYKLGDDCLACLKDLKRWFKLVDDQQKRWDVAMAVAEYRILTDDLLPILIDWENKCSLAAKLAKNNPDHEEFRNKAYYDKIALNCLQLLVLMTWPLIVTEQSSSNQITLYGELKKHQLVYKKTILSMESGKVLRAAIRLALDVIKIDRLSRTPRDNMVLKLVLNFFRNVIAIEPGEFTINTKKSMPKKGITSIDTLPPNVSMDDISLNTVISSFHKNKVFGFLLTLTSSLSKEFDQDFINIPLLEIMFYFTKDVNQELLFPRQFETGTHSKVVNKNESSSANNIVTSAGFELSKLLQKEHQMRKNVIKHTSARHSRFGGLLSIQTPDKTRLTVSGSQALVDEKIALQKLDDSKKWNAAIIAKHQSVAAEGLPNSLLNSQTGKAIFFTESNGKHFKEFINNFIDSGFNILLHSVTNYFTTEQDRMVTLEQVEYLLFFAWFVKYQLLRSKIDNSADIKQVSEALKEVTFILVSSLLRSAYDLKNWTVTHAGMIAFNELLNLVSRTKAAQEEDSTDIEFIVSRLFSDERIQLLSNLPKIGSKYSLQFMKSCIELTHSVLKVLEQYSDDKTLVIEGKSRRQKKFNISEGDITKLIEEENVDRDEALDILTSSLRSIEVNFQKVQANYMTEPVIETYINFLERFRELEDDSIKKVFSFFHRVFVQAKEQALLFRFDLIILLREMLSPDGLDRMSRSRKYVSQFSDYFLARLKKRLKKSPAWFVGLLFPPLHNSEVGFYQRYGEYNVLNNESMYAAPASQFKPIPDEEALPPSILLDMKYGVLVSTLLDDGKTELLDQLLKHITHTLDIFKSWLTVNVNAGKETVNPPNEYFTLTGVLNNDPIFKDKDYRALLLLIGYSIPRKINEPCFLPGTVEVSDLTVSCELVKKYLSTPFETPNGLPSSSYLLRVRSEKDSFSHNEQDGWEGDDDYDYNDPYIVPDDQILSKSDAAYFKDLDNNASDKLKGTKFSKGIARSKKKDKRKRRKGEAKTNLPMFGDQDDERPQTVRERHGVFSKEFISDSEDDEDLMNPIFFENETYMRWLLDKNNGQLTEDRYIQFAKFAAERMNNGGVVTGDYTSLFGGSIPSIESIRATESSSFAPDKSLISLASHVASEMSIFDVNNNNNNQLSDDDVNSESRNSLGSSQPSNSQNMFQSEVYSRKESTKRSLEASAADESDEDEEAIRLFGKKSRVVLSQGDSDD", "notes": "also called Csm3-5A/Tof1-3A; source: S. cerevisiae, overexpressed, purified as a heterodimer"}}, "key": {"[1]": {"target": "replisome assembled in vitro on origin DNA (CMG-containing) (S. cerevisiae) (UniProt P29469)", "sequence (P29469 whole entry, looked up)": "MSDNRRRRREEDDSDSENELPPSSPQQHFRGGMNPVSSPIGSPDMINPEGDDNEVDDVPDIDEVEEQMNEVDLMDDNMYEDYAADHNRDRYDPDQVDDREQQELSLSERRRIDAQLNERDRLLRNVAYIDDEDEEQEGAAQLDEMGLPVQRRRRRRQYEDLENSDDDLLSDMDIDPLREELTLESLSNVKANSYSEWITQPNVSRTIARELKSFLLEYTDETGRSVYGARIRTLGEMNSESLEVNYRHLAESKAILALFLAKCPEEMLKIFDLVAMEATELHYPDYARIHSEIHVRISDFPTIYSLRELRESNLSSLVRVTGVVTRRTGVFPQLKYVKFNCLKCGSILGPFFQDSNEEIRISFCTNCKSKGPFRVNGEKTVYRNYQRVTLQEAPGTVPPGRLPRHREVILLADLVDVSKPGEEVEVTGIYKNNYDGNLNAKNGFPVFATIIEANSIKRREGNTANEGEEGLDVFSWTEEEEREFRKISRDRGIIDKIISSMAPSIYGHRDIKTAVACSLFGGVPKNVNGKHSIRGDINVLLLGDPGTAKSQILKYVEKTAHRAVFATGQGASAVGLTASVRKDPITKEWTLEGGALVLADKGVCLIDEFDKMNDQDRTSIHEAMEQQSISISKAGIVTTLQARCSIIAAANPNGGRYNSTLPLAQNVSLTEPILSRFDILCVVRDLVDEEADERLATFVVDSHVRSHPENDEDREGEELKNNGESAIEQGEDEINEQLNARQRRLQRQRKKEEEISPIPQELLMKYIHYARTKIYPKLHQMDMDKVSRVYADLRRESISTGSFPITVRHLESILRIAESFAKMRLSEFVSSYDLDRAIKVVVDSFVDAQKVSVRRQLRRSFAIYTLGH"}, "Cdc45": {"target": "T1, Cdc45 (S. cerevisiae, UniProt Q08032 1-650)", "T1 construct": "Cdc45, S. cerevisiae, subunit of CMG; source: S. cerevisiae, overexpressed, purified as part of CMG; in XL-MS part of the co-expressed, co-purified complex (yJY74)", "T1 sequence": "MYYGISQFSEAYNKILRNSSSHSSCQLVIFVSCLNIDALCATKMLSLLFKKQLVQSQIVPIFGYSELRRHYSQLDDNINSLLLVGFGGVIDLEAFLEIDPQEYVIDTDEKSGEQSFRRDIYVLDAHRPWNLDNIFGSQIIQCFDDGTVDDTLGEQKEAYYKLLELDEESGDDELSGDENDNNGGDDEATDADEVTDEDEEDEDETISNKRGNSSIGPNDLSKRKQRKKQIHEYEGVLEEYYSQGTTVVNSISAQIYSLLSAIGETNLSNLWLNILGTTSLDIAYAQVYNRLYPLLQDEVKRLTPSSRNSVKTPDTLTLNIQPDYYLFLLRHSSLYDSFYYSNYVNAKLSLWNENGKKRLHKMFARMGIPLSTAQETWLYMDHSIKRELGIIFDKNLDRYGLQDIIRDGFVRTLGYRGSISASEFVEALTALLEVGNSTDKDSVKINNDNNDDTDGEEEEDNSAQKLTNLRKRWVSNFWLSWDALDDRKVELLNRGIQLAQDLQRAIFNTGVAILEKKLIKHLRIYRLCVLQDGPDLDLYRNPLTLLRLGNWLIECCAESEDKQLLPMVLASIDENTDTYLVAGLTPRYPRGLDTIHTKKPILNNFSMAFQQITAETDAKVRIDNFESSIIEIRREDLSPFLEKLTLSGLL", "assay": "cryo-EM structure; reconstituted from purified CMG, fork DNA, Csm3/Tof1, Ctf4, Mrc1 with AMP-PNP; glycerol gradient fixation (glutaraldehyde and BS3)", "settings": "both partners purified"}, "[2]": {"target": "T2, Cdc45-MCM-GINS (CMG) helicase (S. cerevisiae, UniProt P29469 1-868; P24279 1-971; P30665 1-933; P29496 1-775; P53091 1-1017; P38132 …)", "T2 construct": "Mcm2, S. cerevisiae, subunit of MCM in CMG; Mcm3, S. cerevisiae, subunit of MCM in CMG; Mcm4, S. cerevisiae, subunit of MCM in CMG; Mcm5, S. cerevisiae, subunit of MCM in CMG; Mcm6, S. cerevisiae, subunit of MCM in CMG; Mcm7, S. cerevisiae, subunit of MCM in CMG; Cdc45, S. cerevisiae, subunit of CMG; Psf1, S. cerevisiae, subunit of GINS in CMG; Psf2, S. cerevisiae, subunit of GINS in CMG; Psf3, …", "assay": "co-sedimentation; 10-30% glycerol gradient without cross-linker; 0.5 μM CMG with 1.5 molar excess of fork DNA, Csm3/Tof1 (or mutant), Ctf4 and Mrc1; 500 μM AMP-PNP, 3 mM Mg(OAc)2, 150 mM NaOAc, pH 7.5; 200,000g, 4°C, 2 h; silver-stained SDS-PAGE of fractions", "settings": "both partners purified"}}, "data": [{"molecule": "Csm3/Tof1 heterodimer (from UniProt Q04659 1-317; P53840 1-1238) (complex)", "values": [{"measurement": "concentration of Csm3/Tof1 that saturates origin-dependent replication (Figure S10H)", "setting": "[1]", "value": 10, "unit": "nM"}]}, {"molecule": "B1", "values": [{"measurement": "binding result", "setting": "Cdc45", "value": "binds"}]}, {"molecule": "B2", "values": [{"measurement": "stoichiometry N", "setting": "[2]", "value": "~1", "unit": "Mrc1 per complex"}]}, {"molecule": "B3", "values": [{"measurement": "binding result", "setting": "[2]", "value": "binds"}]}]}
